Measurements from patent publication US20120178694A1 (University of Pennsylvania, published 2012).
Bridge positions count the residues as written; N and C are the ends. Square brackets hold non-standard residues; d marks the D form. Trp(1-Me) = Cn1cc(C[C@H](N)C(=O)O)c2ccccc21; NMeI = CC[C@H](C)[C@H](NC)C(=O)O; Nle = CCCC[C@H](N)C(=O)O; Sar = CNCC(=O)O

Tests used:
[1] = target: T1, C3 purified from fresh human plasma (human, UniProt P01024 23-1663); assay: cell-based or functional assay
[2] = target: T1, C3 purified from fresh human plasma; assay: ITC; peptide titrated into C3, PBS, 25 C
Description: (§1) ITC analysis. All ITC experiments were performed with the Microcal VP-ITC calorimeter (Microcal Inc., Northampton, Mass.), using protein concentrations of 1.8-5 μM C3 in the cell and peptide concentrations of 40-100 μM of individual compstatin analogs in the syringe. All titrations were performed in PBS (10 mM phosphate buffer with 150 mM NaCl, pH 7.4) at 25° C. using multiple peptide injections of 2-7 μL each. The raw isotherms were corrected for the heats of dilution by subtracting the isotherms representing peptide injections into the buffer. The resulting isotherms were fitted to a single site of sites models using Origin 7.0 software, and the model that produced the lowest χ² value was deemed to be appropriate for the respective data set. The Gibbs free energy was calculated as ΔG=ΔH−TΔS. Each experiment was repeated at least twice.
(§2) Characterization of binding thermodynamics.

[3] = target: T1, C3 purified from fresh human plasma; assay: ITC with C3; relative to peptide 14
Description: as §1, §2

[4] = target: T1, C3 purified from fresh human plasma; assay: cell-based or functional assay; remark: listed apart in the source
[5] = target: biotinylated C3b (UniProt P01024); assay: SPR on immobilised C3b; ratio relative to peptide 14
[6] = target: biotinylated C3b (UniProt P01024); assay: SPR, Biacore 3000; biotinylated C3b on streptavidin chip, peptide injected; 1:1 fit
[7] = target: T1, C3 purified from fresh human plasma; assay: cell-based or functional assay; remark: listed apart in the source
[8] = target: T1, C3 purified from fresh human plasma; assay: cell-based or functional assay; remark: listed apart in the source

T1 sequence (P01024 23-1663): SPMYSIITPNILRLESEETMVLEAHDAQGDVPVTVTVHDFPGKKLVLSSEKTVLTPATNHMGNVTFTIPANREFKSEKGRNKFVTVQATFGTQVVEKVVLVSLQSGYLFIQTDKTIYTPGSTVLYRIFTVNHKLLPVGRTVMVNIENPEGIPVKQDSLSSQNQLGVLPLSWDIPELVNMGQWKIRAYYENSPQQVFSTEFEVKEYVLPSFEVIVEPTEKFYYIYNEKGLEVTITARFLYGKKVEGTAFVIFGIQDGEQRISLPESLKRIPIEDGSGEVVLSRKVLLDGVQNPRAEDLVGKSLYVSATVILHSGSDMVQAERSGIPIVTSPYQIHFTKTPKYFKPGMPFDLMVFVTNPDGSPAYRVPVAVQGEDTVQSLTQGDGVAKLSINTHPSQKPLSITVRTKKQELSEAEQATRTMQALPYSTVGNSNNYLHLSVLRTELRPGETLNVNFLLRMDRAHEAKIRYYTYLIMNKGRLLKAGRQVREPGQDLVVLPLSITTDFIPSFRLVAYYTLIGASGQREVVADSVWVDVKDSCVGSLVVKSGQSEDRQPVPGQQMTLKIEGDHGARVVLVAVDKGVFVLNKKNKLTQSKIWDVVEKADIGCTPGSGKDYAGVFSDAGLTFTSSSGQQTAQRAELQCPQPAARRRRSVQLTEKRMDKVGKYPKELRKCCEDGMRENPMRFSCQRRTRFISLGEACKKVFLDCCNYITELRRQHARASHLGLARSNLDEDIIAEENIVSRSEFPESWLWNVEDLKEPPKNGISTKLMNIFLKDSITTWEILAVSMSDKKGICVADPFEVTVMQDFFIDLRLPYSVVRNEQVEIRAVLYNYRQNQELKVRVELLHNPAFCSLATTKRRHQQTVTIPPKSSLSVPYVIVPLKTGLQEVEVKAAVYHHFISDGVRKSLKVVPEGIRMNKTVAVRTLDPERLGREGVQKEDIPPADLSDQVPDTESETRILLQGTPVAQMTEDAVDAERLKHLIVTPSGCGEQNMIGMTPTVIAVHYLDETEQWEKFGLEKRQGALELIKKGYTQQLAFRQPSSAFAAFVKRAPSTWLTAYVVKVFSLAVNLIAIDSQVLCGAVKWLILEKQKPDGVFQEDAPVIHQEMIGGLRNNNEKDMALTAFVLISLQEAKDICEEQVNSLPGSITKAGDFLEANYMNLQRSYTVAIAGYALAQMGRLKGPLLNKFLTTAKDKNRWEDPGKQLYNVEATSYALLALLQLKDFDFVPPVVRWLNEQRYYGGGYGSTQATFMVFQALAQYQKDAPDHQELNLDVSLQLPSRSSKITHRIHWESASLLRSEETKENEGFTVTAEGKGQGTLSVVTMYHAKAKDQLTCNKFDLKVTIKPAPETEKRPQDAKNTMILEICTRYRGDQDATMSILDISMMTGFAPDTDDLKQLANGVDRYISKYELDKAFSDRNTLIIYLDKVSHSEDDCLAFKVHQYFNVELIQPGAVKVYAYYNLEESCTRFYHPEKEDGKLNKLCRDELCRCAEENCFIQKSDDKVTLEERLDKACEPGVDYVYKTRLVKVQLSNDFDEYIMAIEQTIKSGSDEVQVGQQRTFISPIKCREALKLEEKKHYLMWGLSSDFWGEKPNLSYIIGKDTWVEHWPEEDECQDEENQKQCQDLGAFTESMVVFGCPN

Binder	Fold change in activity (IC50) relative to SEQ ID NO:4 [1] [fold]	-TΔS [2] [kcal/mol]	ΔG [2] [kcal/mol]	ΔH [2] [kcal/mol]	-TΔΔS [3] [kcal/mol]	rKD ITC [3] [fold]	ΔΔG [3] [kcal/mol]	ΔΔH [3] [kcal/mol]	rP, relative potency compared to peptide 14 [4] [fold]	rKD SPR [5] [fold]	rka [5] [fold]	rkd [5] [fold]	Kd [6] [nM]	koff [6] [s⁻¹]	kon [6] [M⁻¹ s⁻¹]	IC50, inhibition of classical pathway complement activation, ELISA [7] [nM]	IC50 (nM, CP), inhibition of classical pathway complement activation, ELISA, human serum [8] [nM]	IC50 fold change relative to peptide 17 [8] [fold]
Ac-ICV[Trp(1-Me)]QDW[Sar]AHRC[NMeI]-NH2 (disulfide 2-12; SMILES CC[C@H](C)[C@H](NC(C)=O)C(=O)N[C@H]1CSSC[C@@H](C(=O)N(C)[C@H](C(N)=O)[C@@H](C)CC)NC(=O)[C@H](CCCNC(=N)N)NC(=O)[C@H](Cc2c[nH]cn2)NC(=O)[C@H](C)NC(=O)CN(C)C(=O)[C@H](Cc2c[nH]c3ccccc23)NC(=O)[C@H](CC(=O)O)NC(=O)[C@H](CCC(N)=O)NC(=O)[C@H](Cc2cn(C)c3ccccc23)NC(=O)[C@H](C(C)C)NC1=O, Sar^8, (NMe)Ile^13; also called peptide 21; analog 21) [Ac-Ic[CV(1-MeW)QDW(N-MeG)AHRC](N-MeI)-NH2]	3.32	5.7	-11.4	-17.1	-1.3	3.3	-0.7	0.5	3.3	5.2	1.5	3.2	2.3	0.0035	1.5e+06	62	–	–
Ac-ICV[Trp(1-Me)]QDW[Sar]AHRCI-NH2 (disulfide 2-12; SMILES CC[C@H](C)[C@H](NC(=O)[C@@H]1CSSC[C@H](NC(=O)[C@@H](NC(C)=O)[C@@H](C)CC)C(=O)N[C@@H](C(C)C)C(=O)N[C@@H](Cc2cn(C)c3ccccc23)C(=O)N[C@@H](CCC(N)=O)C(=O)N[C@@H](CC(=O)O)C(=O)N[C@@H](Cc2c[nH]c3ccccc23)C(=O)N(C)CC(=O)N[C@@H](C)C(=O)N[C@@H](Cc2c[nH]cn2)C(=O)N[C@@H](CCCNC(=N)N)C(=O)N1)C(N)=O, Sar^8, Ile^13; also called peptide 17; Ac-Ic[CV(1-MeW)QDW(N-MeG)AHRC]I-NH2) [Ac-Ile-c[Cys-Val-Trp(Me)-Gln-Asp-Trp-Sar-Ala-His-Arg-Cys]-Ile-NH2]	2.24	2.9	-11.2	-14.1	-4.1	2.4	-0.5	3.5	2.2	2.7	1.5	1.7	4.4	0.0066	1.5e+06	92	92	1
Ac-ICV[Trp(1-Me)]QDW[Sar]AHRCL-NH2 (disulfide 2-12; SMILES CC[C@H](C)[C@H](NC(C)=O)C(=O)N[C@H]1CSSC[C@@H](C(=O)N[C@@H](CC(C)C)C(N)=O)NC(=O)[C@H](CCCNC(=N)N)NC(=O)[C@H](Cc2c[nH]cn2)NC(=O)[C@H](C)NC(=O)CN(C)C(=O)[C@H](Cc2c[nH]c3ccccc23)NC(=O)[C@H](CC(=O)O)NC(=O)[C@H](CCC(N)=O)NC(=O)[C@H](Cc2cn(C)c3ccccc23)NC(=O)[C@H](C(C)C)NC1=O) [Ac-Ic[CV(1-MeW)QDW(N-MeG)AHRC]L-NH2]	1.91	–	–	–	–	–	–	–	1.9	2.6	1.3	1.9	4.6	0.006	1.3e+06	108	–	–
Ac-ICV[Trp(1-Me)]QDW[Sar]AHRC[Nle]-NH2 (disulfide 2-12; SMILES CCCC[C@H](NC(=O)[C@@H]1CSSC[C@H](NC(=O)[C@@H](NC(C)=O)[C@@H](C)CC)C(=O)N[C@@H](C(C)C)C(=O)N[C@@H](Cc2cn(C)c3ccccc23)C(=O)N[C@@H](CCC(N)=O)C(=O)N[C@@H](CC(=O)O)C(=O)N[C@@H](Cc2c[nH]c3ccccc23)C(=O)N(C)CC(=O)N[C@@H](C)C(=O)N[C@@H](Cc2c[nH]cn2)C(=O)N[C@@H](CCCNC(=N)N)C(=O)N1)C(N)=O) [Ac-Ic[CV(1-MeW)QDW(N-MeG)AHRC](Nle)-NH2]	1.9	–	–	–	–	–	–	–	1.9	2.7	1.5	1.7	4.4	0.0066	1.5e+06	109	–	–
